# Reference: the nanobody polyreactivity screen of Harvey et al. (2022)
# Assay: yeast display, Sf9 membrane polyspecificity reagent, FACS + sequencing; frameworks hold sequencing errors
# Outline: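 Sorting gates, low and high (top ~1%), were placed on anti-HA fluorescence to track expression and on streptavidin fluorescence to track reagent binding. A clone's polyreactivity label is taken from the gate it came out of. The reagent was 10% biotinylated, detergent-solubilized Sf9 membrane, applied for 1 hour at 4 °C to galactose-induced yeast display cells.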
row,Sequence,polyreactivity (PSR sort gate)
1,QVQLVESGGGLVQAGGSLRLSCAASGITFDSYAMGWYRQAPGKERELVAAISYSGGSTYYADSVKGRFTISRDNAKNTVYLQMNSLKPDDTAVYYCAAASDDDYDYWGQGTKVTVSS,low polyreactivity
2,QVQLVESGGGLVQAGGSLRLSCAASGITFDTYDMGWYRQAPGKERELVAAISSSGGSTYYADSVKGRFTISRDNAKNTVYLQMNSLKPEDTAVYYCAAVLLDDDYSYYYWGQGTQVTVSS,low polyreactivity
3,QVQLVESGGGLVQAGGSLRLSCAASGITFDVNAMGWYRQAPGKERELVAAITAGGNTYYADSVKGRFTISRDNAKNTVYLQLNSLKPEVTAVYYCATQSYYGFYDYDYWGQGTQVTVSS,low polyreactivity
4,QVQLVESGGGLVQAGGSLRLSCAASGITFDVYAMGWYRQAPGKERELVAAISGSGGSTYYADSVKGRFTISRDNAKNTVYLQMNSLKPEDTAVYYCAASGPDGQYLWYDYWGQGTQVTVSS,high polyreactivity
5,QVQLVESGGGLVQAGGSLRLSCAASGITFDYYAMGWYRQAPGKERELVAAISWGGGSTYYADSVKGRFTISRDNAKNTVYLQMNSLKPEDTAVYYCAADIVSSPSSYVPPGDYWGQGSQVTVSS,low polyreactivity
6,QVQLVESGGGLVQAGGSLRLSCAASGITFDYYDMGWYRQAPGKERELVATITSDGSTTYADSVKGRFTISRDNAKNTVYLQMNSLKPEDTAVYYCAAALHIYSYFYITYDYWGQGTQVTVSS,high polyreactivity
7,QVQLVESGGGLVQAGGSLRLSCAASGITFEGYAMGWFRPAPGKERELVAAIRSSGTSTYYADSVKGRFTISRDNAKTTVYLQMNSQKPVDTAVYYCNRARSSSRYDYWGQGTQVTVSS,low polyreactivity
8,QVQLVESGGGLVQAGGSLRLSCAASGITFEGYAMGWYRQAPGKEREFVAAITGSGSTTYYADSVKGRFTITRDNAKNTVYLQMNSLKPEDTAVYYCVAYVGSTYSAPEYYWGQGTQVTVSS,low polyreactivity
9,QVQLVESGGGLVQAGGSLRLSCAASGITFEGYAMGWYRQAPGNEREFVAAITSTGTSTRYADSVKGRFTISRDNAKNTVYLQMNSLKPEDTAVYYCAATSHFLSWHLRYYWGQGTQVTVSS,high polyreactivity
10,QVQLVESGGGLVQAGGSLRLSCAASGITFEIYAMGWYRQAPGKERELVAAITWRGGSTYYADSVKGRFTISRDNAKNTVYLQMNSLKPDDTAVYYCAAEQYSGEDWGDYWGQGTQVTVSS,low polyreactivity
11,QVQLVESGGGLVQAGGSLRLSCAASGITFEPYAMGWYRQAPGKEREFVADITWSGGSTYYADSVKGRFTISRDNAMNTGYLQMNSLKPEDTAVYYCAADGWTSYWSDYWGQGTQVTVSS,low polyreactivity
12,QVQLVESGGGLVQAGGSLRLSCAASGITFFAYAMGWYRQAPGKERELVAAISTDGGSTYYADSVKGRFTISRDNAKNTVYLQMNSLKPEDTAVYYCAAKQRYVRTRGMDYWGQGTQVTVSS,high polyreactivity
13,QVQLVESGGGLVQAGGSLRLSCAASGITFFDNAMGWYRQAPGKERELVATITGGGASTYYADSVKGRFTISRDNAKNTVYLLMNSLKPEDTAVYYCAADYVDGVYLEYGYWGQGTQVTVSS,low polyreactivity
14,QVQLVESGGGLVQAGGSLRLSCAASGITFFRYAMGWYRQAPGKERELVAAITTSGSSTFYADSVKGRFTISRDNAKNTVYLLMNSLKPEDTAVYYCAAVFRWARLYEYDYWGQGTQVTVSS,high polyreactivity
15,QVQLVESGGGLVQAGGSLRLSCAASGITFFRYTMGWYRQAPGKEREFVADISRSGDTTYYADSVKGRFTISRDNAKNSVYLQMNSLKPEDTAVYYCARLTRSGEYGYWGQGTQVTVSS,high polyreactivity
16,QVQLVESGGGLVQAGGSLRLSCAASGITFFWYAMGWYRQAPGKERELVARITSDGSTSYADSVKGRFTISRDNAKNTVYLQMNSLKREDTAVYYCAADYSYIYQSWSGYENDYWGQGTQVTVSS,high polyreactivity
17,QVQLVESGGGLVQAGGSLRLSCAASGITFGDNAMGWYRQAPGKERELVAAITLSDVDTYADSVKGRFTISRDNAKNTVYLQMNSLKPEDTAVYYCAADYDFFSSKRFDYWGQGTQVTVSS,low polyreactivity
18,QVQLVESGGGLVQAGGSLRLSCAASGITFGFNAMGWYRQAPGKERELVAAITWSVGRTYYADSVKGRFTISRDTAKNTVYLQMNSLKPEDTAVYYCAKDFEAGDDYFAYDYWGQGTQVTVSS,low polyreactivity
19,QVQLVESGGGLVQAGGSLRLSCAASGITFGGNAMGWYRQATGKERELVAGINRSGVSTYYADSVKGRFTISRDNAKNTVYFQMNSLKPEDTAVYYCATGYFSWIYGYYYWGQGTQVTVSS,high polyreactivity
20,QVQLVESGGGLVQAGGSLRLSCAASGITFGGYAMGWYRQAPGKERELVASIRSGSTTNYADSVKGRFTISRDNAKNTVYLQMNSLKPEDTAVYYCAARNFRNRYGYWGQGTQVTVSS,high polyreactivity
21,QVQLVESGGGLVQAGGSLRLSCAASGITFGIYVMGCYRQAPGKEREFVATMSRSDDNTYYADSVKGRFTISRDNAKNTVYLQRNSLKPEDTAVYYCAADGVISAWYSSRDDYWGQGTQVTVSS,low polyreactivity
22,QVQLVESGGGLVQAGGSLRLSCAASGITFGNYAMYWVRQAPGKERELVAAINYSRGSTYYADSVKGRFTISRDNAKNTVYLQMNSLKPQDTAVYYCAADTYPASYDYWGQGTQVTVSS,high polyreactivity

row,Sequence,polyreactivity (PSR sort gate)
1,QVQLVESGGGLVQAGGSLRLSCAASGITFGRNTMGWYRQAPGKERELVAAIDSGGNTYADSVKGRFTISRDNAKNTVFLQMNSLKPEDTAVYYCAVDGGEFSSYGYWGQGTQVTVSS,low polyreactivity
2,QVQLVESGGGLVQAGGSLRLSCAASGITFGRYALGWYRQAPGKERELVATITVNGGRTYYADSVKGRFTISRDNAKNTVYLQMNSLKPEDTAVYYCAAERRNSYVLLFKYNYWGQGTQVTVSS,low polyreactivity
3,QVQLVESGGGLVQAGGSLRLSCAASGITFGRYAMGWYRQAPGKERELVAAISWSGGSTYYADSVKGRFTISRDNAKNTVYLQMNSLKPEDTAVYYCATRIRTVAYNYWGQGTQVTVSS,high polyreactivity
4,QVQLVESGGGLVQAGGSLRLSCAASGITFGSKVMGWYRQPPGKEWEFVAVINWSTGSTYYADSVKGRFTISRDNAKNTVYLQMNSLKPEDTAVYYCNTDSGNEWTSYDYWGQGTQVTVSS,low polyreactivity
5,QVQLVESGGGLVQAGGSLRLSCAASGITFGSYAMGWYRQAPGKERELVAAIRWRGGNTYYADSVKGRFTISRDNAKNTVYLQMNSLKPEDTAVYYCAARRYGYRYDQPYSNDYWGQGTLVTVSS,low polyreactivity
6,QVQLVESGGGLVQAGGSLRLSCAASGITFGSYAMGWYRQAPGKERELVAAITSGGGTNYADSVKGRFTISRDNAKNTVYLQMNSLKPEDTAVYYCAARYYYLGTRYGYWGQGTQVTVSS,low polyreactivity
7,QVQLVESGGGLVQAGGSLRLSCAASGITFGVYGKGWYRQEPGKERELVAAISRTGGSTYYADSVKGRFTISRDNAKNTVYLQMNSLKPEDTAVYYCNARPVGRVIGDYWGQGTQVTVSS,high polyreactivity
8,QVQLVESGGGLVQAGGSLRLSCAASGITFGWYAMGWYRPAPGKERELVAAISWSGGTTYYADSVKGRFTISRDNAKNTVYLQMNSLKPEDTAVYYCAATWYYPTVYAGNYWGQGTQVTVSS,high polyreactivity
9,QVQLVESGGGLVQAGGSLRLSCAASGITFGYYAMGWSRQAPGKERELVAAINWRGGNTYYADSVKGRFTISRDNAKNTVYLQMNSLKPEDTAVYYCNALYKRYTDYDYWGQGSQVTVSS,high polyreactivity
10,QVQLVESGGGLVQAGGSLRLSCAASGITFGYYAMGWYRQAPGKERELVAAITWSGSSTYYADSVKGRFTISRDNAKNTVYLQMNSLKPEDTAVYYCAAEYSSHYAVWRGHSGYWGQGTQVTVSS,high polyreactivity
11,QVQLVESGGGLVQAGGSLRLSCAASGITFHRYDMGWYRQAPGKERELVADITWSGGSTYYADSVKGRFTISRDNAKNTVYLQMNSLKPEDTSVYYCAADASTYTYTPYDYWGQGTQVTVSS,low polyreactivity
12,QVQLVESGGGLVQAGGSLRLSCAASGITFHYKAMGWYIQAPGKERELVATIRRGGITKYADSVKGRFTISRDNAKNTVYLQMNSLKPEDTAVYYCAAGYYSHGAWFDHWGEGTQVTVSS,low polyreactivity
13,QVQLVESGGGLVQAGGSLRLSCAASGITFIGYAMGWYRQAPGKERELVAAITTNGGGTYYADSVKWRFTISRDNAKKTVYLQMNSLKPEDTAVYYCNAVKQRSSIFDYWGQGSQVTVSS,low polyreactivity
14,QVQLVESGGGLVQAGGSLRLSCAASGITFILNPMGWNRQAPGKEREFVAAISTSGGNTYYADSVKGRFTISRDYAKYTVYLEMNSLKPEDTAVYYCNADWGVVYISYSPEYDYWGHGTQVTVSS,low polyreactivity
15,QVQLVESGGGLVQAGGSLRLSCAASGITFINYDMGWYRQAPGKERELVAAISQIGTSTYYADSVKGRCTISRDNAKNTVYLQMNSLKPEDTAVYYCNARYISTGFRYNYWGQGTQVTVSS,high polyreactivity
16,QVQLVESGGGLVQAGGSLRLSCAASGITFISYAMGWYRQAPGKERELVAGITSDDSTSYADSVKGRFTISRDNAKNTVYLQMNSVKPEDTAVYYCAARSYTLRTSTGRLYRYYYWGQGTQVTVSS,high polyreactivity
17,QVQLVESGGGLVQAGGSLRLSCAASGITFIVNTMGWYRQAPGKEREFVATISANSDGTYYADSVKGRFTISRDNAKNTVYLQMNSLKPEDTAVYYWGQGTQVTVSS,low polyreactivity
18,QVQLVESGGGLVQAGGSLRLSCAASGITFIYYAMGWYRQAPGKEREFVAAITFRDGDTYYADSVKGRFTISRDNAKNTVYLQMNSLKPEDTAVYYCADTYWVYYFYPGYDYWGQGTQVTVSS,low polyreactivity
19,QVQLVESGGGLVQAGGSLRLSCAASGITFIYYTMGWYRQEPGKERELVAAISSRGSSTYYADSVKGRFTISRDNAKNTVYLQMNSLKPEDTAVYYCAAVQYRYGGMDYWGQGTQVTVSS,high polyreactivity
20,QVQLVESGGGLVQAGGSLRLSCAASGITFKAYAMGWYRQAPGKDRELVAAINTSGARTYYADSVKGRFTISRDNAKNTVYLQMNSLKPEDTAVYYCNARLHQQEGDYWGQGTQVTVSS,low polyreactivity
21,QVQLVESGGGLVQAGGSLRLSCAASGITFKAYVMGWYRQAPGKERELVAAITRSGGRTYYADSVKGRFTISRDNAKNTVFLQMNSLKPEDTAVYYCAADGPHHGDGYWGQGTQVTVSS,high polyreactivity
